This is an account of results in patent US20240083986A1 (published 2024).

B1: H4H16979P (antibody, human IgG4, V domains shown)
VH: QVQLVQSGAEVKKPGASVKVSCKASGYTFIAYYLHWVRQAPGQGLEWMGLLNPYTGGSYYTQKFQGRVTMTRDTSIDTAYMELNSLRSDDTAIYYCARDKRSYYIPYAFEIWGQGTMVTVSS
VL: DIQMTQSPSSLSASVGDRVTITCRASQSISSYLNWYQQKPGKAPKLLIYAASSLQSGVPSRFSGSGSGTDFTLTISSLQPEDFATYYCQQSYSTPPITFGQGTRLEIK
notes: Fully human antibody with human IgG4 Fc (H4H prefix)
B2: H4H17001P (antibody, human IgG4, V domains shown)
VH: QVQLVESGGGLVKPGGSLRLSCAASGFTFSDYYMNWIRQAPGKGLEWISLISSSGSAIYYSDSVKGRFTISRDNARKSLYLQVNSLRAEDTAVYYCARDRGEWALGAYYYGLDVWGQGTTVTVSS
VL: DIVMTQSPLSLPVTPGEPASISCRSSQSLLHSDGYNYLDWYLQKSGQSPQLLIYLGSNRASGVPDRFSGSGSGTDFTLKISRMEAEDVGVYYCMQALQTPYTFGQGTKLEIK
notes: as for B1
B3: H4H16987P (antibody, human IgG4 S228P, kappa, V domains shown)
VH: EVQLVESGGGLVQPGGSLRLSCAASGFTVSSNSMSWVRQAPGEGLEWVSVIFSGGITYYSDSVKGRFTISRHNSKNTLYLQMNSLRTEDTAVYYCARHSNWNFDAFDIWGQGTMVTVSS
VL: DIQMTQSPSSLSASVGDRVTITCRASQSFDTYLNWYQQKPGKAPNLLIYATSSLQSGVPSRFSGSGSGTDFTLTISSLQPEDFGTYYCQQSYSIPYTFGQGTKLEIKR
notes: human IgG4 Fc; also called MAB4
B4: H4H16991P (antibody, human IgG4, V domains shown)
VH: QVQLVQSGAEVRKPGASVKVSCKASGYTFTGYYLHWVRQAPGQGLEWMGLINPNTGGTNFAQKFQGRVTMTRDSSISAAYMELSRLRSDDTAVYYCARQHWNRYFDNWGQGTLVTVSS
VL: DIQMTQSPSTLSASVGDRVTITCRASQSVGNWLAWYQQKPGKAPKLLIQEASSIESGVPSRFSGSGSGTEFTLIVSSLQPDDFATYYCQQYNSYSWTFGHGTKVEIK
notes: as for B1
B5: H4H16971P (antibody, human IgG4, V domains shown)
VH: QVQLVESGGGVVQPGRSLRLSCAASGFTFSSYGLHWVRQAPGKGLEWVAVISDDGSYKFYADSMKGRFTISRDNSKNTLYLQMNSLRAEDTAVYYCAKDRGRSGWYYFDYWGQGTLVTVSS
VL: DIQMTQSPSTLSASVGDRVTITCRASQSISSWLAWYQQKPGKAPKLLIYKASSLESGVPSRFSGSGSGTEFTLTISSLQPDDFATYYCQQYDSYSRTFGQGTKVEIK
notes: as for B1

One assay has as its target T1, CHO produced recombinant Bet v 1 containing a S85A mutation with a C-terminal myc-myc hexahistidine tag … (Betula verrucosa (birch)).
T1 chain: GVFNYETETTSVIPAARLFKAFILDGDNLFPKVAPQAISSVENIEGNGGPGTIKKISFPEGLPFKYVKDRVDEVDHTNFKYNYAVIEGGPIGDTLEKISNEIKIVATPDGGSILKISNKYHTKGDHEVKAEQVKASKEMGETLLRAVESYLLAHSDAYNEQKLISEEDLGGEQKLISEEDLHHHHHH
Nature of the assay: SPR, mAb captured via anti-hFc, 25 C.
For the molecule B1, the “100 nM natural Bet v 1- MMH Bound (RU)” value worked out at 46 RU, the dissociation constant (Kd) turned out to be 0.804 nM, the off-rate constant (koff) was 0.00023 s⁻¹ and the kon came to 286000 M⁻¹ s⁻¹. For the same molecule, the t½ came to 50 min.
Consider B2, for which the “100 nM natural Bet v 1- MMH Bound (RU)” value was determined as 1 RU and the binding result is reported as “no binding (tested: 100 nM)”.
On to B3, for which the “100 nM natural Bet v 1- MMH Bound (RU)” value worked out at 46 RU, the Kd was 43.8 nM, the koff worked out at 0.0215 s⁻¹ and the kon was 490000 M⁻¹ s⁻¹. Further, the t½ was determined as 0.5 min.
The like results for B4 were, in that order, 61 RU, 0.735 nM, 0.000287 s⁻¹, 390000 M⁻¹ s⁻¹ and 40 min.
For B5 the same measures were 58 RU, 9.48 nM, 0.00386 s⁻¹, 407000 M⁻¹ s⁻¹ and 3 min.

A further assay has as its target T2, European Hornbeam (Car b 1 isoform 2, MyBiosource, Cat #MBS1043940) (European Hornbeam, UniProt P38950 2-160, limits assumed).
T2 construct: Bought reagent
T2 sequence (looked up): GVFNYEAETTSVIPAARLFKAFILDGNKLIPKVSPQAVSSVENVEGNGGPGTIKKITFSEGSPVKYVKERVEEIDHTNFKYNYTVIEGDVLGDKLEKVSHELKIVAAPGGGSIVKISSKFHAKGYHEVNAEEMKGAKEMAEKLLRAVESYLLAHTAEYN
As to the kind of experiment: SPR, mAb captured via anti-hFc, 25 C. (Surface plasmon resonance follows binding to a sensor surface in real time, without labels.)
As for B1, the “100 nM Analyte Bound (RU)” value was found to be 114 RU, the Kd came to 2.48 nM, the off-rate constant (koff) is 0.00241 s⁻¹ and the kon worked out at 971000 M⁻¹ s⁻¹. Besides, the t½ amounted to 4.8 min.
The like results for B2 were, in that order, 157 RU, 1.58 nM, 0.0032 s⁻¹, 2.03e+06 M⁻¹ s⁻¹ and 3.6 min.
On to B3, for which the “100 nM Analyte Bound (RU)” value worked out at 153 RU, the Kd stood at 5.56 nM, the off-rate (koff) is 0.00561 s⁻¹ and the kon turned out to be 1.01e+06 M⁻¹ s⁻¹. This molecule also returned a t½ of 2.1 min.
The like results for B4 were, in that order, 93 RU, 37.8 nM, 0.0404 s⁻¹, 1.07e+06 M⁻¹ s⁻¹ and 0.3 min.
For B5 the same measures were 23 RU, 564 nM, 0.146 s⁻¹, 259000 M⁻¹ s⁻¹ and 0 min.

A further assay deals with T3, Celery (Api g 1, MyBiosource, Cat #MBS1171376) (Celery, UniProt P49372 1-154, limits assumed).
T3 construct: Bought reagent
T3 sequence (looked up): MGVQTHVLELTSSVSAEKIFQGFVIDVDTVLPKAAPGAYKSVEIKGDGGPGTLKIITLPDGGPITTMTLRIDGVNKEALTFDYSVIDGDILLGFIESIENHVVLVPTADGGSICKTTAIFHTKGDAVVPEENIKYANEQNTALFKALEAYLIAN
As to the kind of experiment: SPR, mAb captured via anti-hFc, 25 C.
With B1, the “100 nM Analyte Bound (RU)” value was 0 RU and the binding result is “no binding (tested: 100 nM)”.
For B2, the “100 nM Analyte Bound (RU)” value was -1 RU.
As for B3, the “100 nM Analyte Bound (RU)” value came to 1 RU and the binding result is reported as “no binding (tested: 100 nM)”.
Consider B4, for which the “100 nM Analyte Bound (RU)” value was determined as 0 RU and the binding result is reported as “no binding (tested: 100 nM)”.
As for B5, the “100 nM Analyte Bound (RU)” value turned out to be 0 RU and the binding result was “no binding (tested: 100 nM)”.

The target in the next assay is T4, European Hornbeam (Car b 1 isoform 1A & 1B, MyBiosource, Cat #MBS1200018) (European Hornbeam, UniProt P38949 2-160).
T4 construct: Bought reagent
T4 sequence (looked up): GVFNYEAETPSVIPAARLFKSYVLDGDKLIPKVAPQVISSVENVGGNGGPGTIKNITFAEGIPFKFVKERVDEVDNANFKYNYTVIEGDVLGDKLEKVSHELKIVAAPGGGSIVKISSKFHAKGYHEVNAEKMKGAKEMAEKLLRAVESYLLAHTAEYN
As to the kind of experiment: SPR, mAb captured via anti-hFc, 25 C.
With B1, the “100 nM Analyte Bound (RU)” value was determined as 1 RU and the binding result was “no binding (tested: 100 nM)”.
Regarding B2, the “100 nM Analyte Bound (RU)” value amounted to 0 RU and the binding result is listed as “no binding (tested: 100 nM)”.
The like results for B3 were, in that order, 0 RU and “no binding (tested: 100 nM)”.
For B4 the same measures were 1 RU and “no binding (tested: 100 nM)”.
For the molecule B5, the “100 nM Analyte Bound (RU)” value is 1 RU and the binding result is reported as “no binding (tested: 100 nM)”.

The target of a further assay is T5, Apple (Mal d 1, MyBiosource, Cat #MBS1224919) (Apple, UniProt P43211 2-159, limits assumed).
T5 construct: Bought reagent
T5 sequence (looked up): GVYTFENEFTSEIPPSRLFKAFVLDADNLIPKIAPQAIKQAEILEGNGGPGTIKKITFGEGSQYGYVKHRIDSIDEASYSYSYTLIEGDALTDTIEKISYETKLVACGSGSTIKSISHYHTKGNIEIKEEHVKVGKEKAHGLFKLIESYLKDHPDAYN
As to the kind of experiment: SPR, mAb captured via anti-hFc, 25 C.
B1: the “100 nM Analyte Bound (RU)” value turned out to be 1 RU and the binding result was “no binding (tested: 100 nM)”.
Turning to B2, the “100 nM Analyte Bound (RU)” value was determined as 0 RU and the binding result is “no binding (tested: 100 nM)”.
On to B3, for which the “100 nM Analyte Bound (RU)” value was 2 RU and the binding result is “no binding (tested: 100 nM)”.
For the molecule B4, the “100 nM Analyte Bound (RU)” value amounted to 0 RU and the binding result is listed as “no binding (tested: 100 nM)”.
B5: the “100 nM Analyte Bound (RU)” value was 25 RU, binding was put at a Kd of 494 nM, the koff stood at 0.0795 s⁻¹ and the kon is 161000 M⁻¹ s⁻¹. The molecule also had a t½ of 0.2 min.

The target in a further assay is T1, CHO produced recombinant Bet v 1 …. As to the kind of experiment: SPR, mAb captured via anti-hFc, 37 C.
B1: the “100 nM natural Bet v 1-MHH Bound (RU)” value is 56 RU, the equilibrium dissociation constant (Kd) was determined as 1.58 nM, the off-rate (koff) was found to be 0.00073 s⁻¹ and the on-rate (kon) turned out to be 462000 M⁻¹ s⁻¹. Moreover, the t½ amounted to 16 min.
Regarding B2, the “100 nM natural Bet v 1-MHH Bound (RU)” value came to 2 RU.
As to B3, the “100 nM natural Bet v 1-MHH Bound (RU)” value was 36 RU, the Kd amounted to 106 nM, the koff is 0.0847 s⁻¹ and the kon came out at 795000 M⁻¹ s⁻¹. The t½ stood at 0.14 min.
In the case of B4, the “100 nM natural Bet v 1-MHH Bound (RU)” value is 67 RU, the equilibrium dissociation constant (Kd) was determined as 1.48 nM, the off-rate constant (koff) was 0.00106 s⁻¹ and the on-rate constant (kon) was 717000 M⁻¹ s⁻¹. The t½ amounted to 11 min.
For B5 the same measures were 60 RU, 18.6 nM, 0.012 s⁻¹, 648000 M⁻¹ s⁻¹ and 1 min.

For the next assay, the target named is T6, Alder (Aln g 1, MyBiosource, Cat #MBS1041484) (Alder, UniProt P38948 2-160, limits assumed).
T6 construct: Bought reagent
T6 sequence (looked up): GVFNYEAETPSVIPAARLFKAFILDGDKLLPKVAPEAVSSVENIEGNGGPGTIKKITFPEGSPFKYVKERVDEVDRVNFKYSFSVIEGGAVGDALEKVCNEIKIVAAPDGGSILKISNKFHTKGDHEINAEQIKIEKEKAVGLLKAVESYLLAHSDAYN
Nature of the assay: SPR, mAb captured via anti-hFc, 25 C.
As to B1, the “100 nM Analyte Bound (RU)” value was found to be 0 RU and the binding result is “no binding (tested: 100 nM)”.
B2: the “100 nM Analyte Bound (RU)” value was determined as 49 RU, binding was put at a Kd of 105 nM, the koff amounted to 0.0278 s⁻¹ and the on-rate (kon) was found to be 264000 M⁻¹ s⁻¹. Also, the t½ was 0.4 min.
For B3 the same measures were 139 RU, 3.94 nM, 0.00087 s⁻¹, 221000 M⁻¹ s⁻¹ and 13 min.
As for B4, the “100 nM Analyte Bound (RU)” value was 3 RU and the binding result is “no binding (tested: 100 nM)”.
With B5, the “100 nM Analyte Bound (RU)” value stood at 41 RU, binding was put at a Kd of 126 nM, the off-rate constant (koff) was found to be 0.0118 s⁻¹ and the on-rate (kon) turned out to be 93000 M⁻¹ s⁻¹. Also, the t½ stood at 1 min.

In general, Kd refers to a measure of binding affinity in units of concentration. One may read the koff as the rate constant with which the complex falls apart. By kon is commonly meant the second-order rate constant of association. For orientation: t½ means the time needed for the level to fall by half in the phase considered.
